Entries after “also recorded” stand apart in the source; their conditions may differ.
Legend:
OVCAR-3 cells [1] = conditions: cited from earlier work
Kuramochi cells [2] = experiment: Paclitaxel cell viability assay; assay type: cell-based; conditions: Homo sapiens, 48 hr
Description: Paclitaxel powder (LC Laboratories; Wobum, Mass.) was dissolved in DMSO to 10 mg/mL to make a stock solution. To determine the paclitaxel IC50 in Kuramochi cells, 8×10^3 Kuramochi cells were seeded in 96-well plates 24 hr prior to drug treatment. Paclitaxel in complete growth medium was added at increasing concentrations, and the cells were incubated for 48 hr. The Aqueous One Cell Proliferation Assay (Promega) was used to assess cell viability. For gene transfection and paclitaxel combination treatment, the cells were transfected first. 4 hr after transfection, paclitaxel was added at 100 nM or 200 nM, and the cells were incubated for 48 hr as previously optimized by our lab.
After confirming the high apoptotic potential of p53-Bad/112,136, we wanted to test the possibility of combining p53-Bad/112,136 gene therapy with paclitaxel, a standard-of-care for HGSC. Based on a genomic and gene expression profile study with 47 ovarian cancer cell lines, Kuramochi was identified to be the best model for high grade serous ovarian cancer, with the highest genetic similarity to ovarian tumors. The IC50 of paclitaxel was determined using a cell viability […] assay. Kuramochi cells were incubated with different paclitaxel concentrations ranging from 0 nM to 1000 nM for 48 hr. The IC50 value was determined to be approximately 100 nM. […]

[3] = Preliminary toxicity study, IP injected polymer and polymer-Ad; conditions: mouse, in vivo
SKOV-3 cells [4] = experiment: Mitochondrial localization of EGFP-tagged constructs, fluorescence microscopy with PCC analysis; assay type: cell-based, human; conditions: mitochondria stained with MitoTracker Red, CMV promoter
Description: (§1) Images of p53-BH3 (EGFP tagged on N-terminus) can be acquired 18 h post-transfection with an Olympus IX71F fluorescence microscope with a F-View Monochrome CCD camera and analyzed with ImageJ using Pearson's correlation coefficient (PCC) and post Costes' algorithm. PCC≥0.6 are considered to be colocalized. […] Apoptosis assay: 7-AAD assay (measuring late-stage apoptosis) can be performed as done before as an initial screen. As before, cells can be stained with […] working solution of 7-aminoactinomycin D (7-AAD) 24 hr post-transfection. Cells can be analyzed and gated for EGFP with the same fluorescence intensity to ensure equal detection of proteins
24 hr post-transfection, cells were stained in PBS solution containing 200 nM MitoTracker Red CM-H2Xros (Thermo Scientific), 1:100 dilution of ProLong Live Antifade Reagent (Thermo Scientific), and 2 μM Hoechst stain. The cells were incubated for 20 minutes protected from light. Images were acquired using a Nikon AIR fluorescence confocal microscope with 60× Plan Apo Oil immersion objective (core facility, University of Utah). The images were visualized using NIS element software with built in EGFP, MitoTracker Red, and DAPI filters. Co-localization analyses were performed using the JACoP plugin for ImageJ software. […] The experiments were performed three times with 10 cells analyzed each experiment for a total of 30 cells per gene constructs.

p53-Luc Cis-Reporter = experiment: Nuclear transcriptional activity p53 luciferase reporter gene assay; assay type: cell-based; conditions: SKOV-3, OVCAR-3, ID8 and Kuramochi cells, 24 hr post-transfection
Description: All constructs (3.5 μg of DNA) were co-transfected with 3.5 μg of p53-Luc Cis-reporter plasmid encoding a firefly luciferase gene (Agilent Technologies; Santa Clara, Calif.) and 0.35 μg of pRL-SV40 plasmid encoding a Renilla luciferase gene (Promega; Madison, Wis.). Renilla luciferase was used to normalize for transfection efficiency in respective cell lines. The Dual-Glo Luciferase Assay System (Promega) was used to determine the firefly luciferase activity and Renilla luciferase activity per manufacturer's recommendation 24 hr post-transfection as before. The luminescence signal was detected using the Infinite M1000 microplate reader (Tecan; Männedorf, Switzerland). The Dual-Glo luciferase assay was performed in triplicate.

OVCAR-3 cells [5] = experiment: TMRE mitochondrial depolarization (MOMP) assay; assay type: cell-based, human; conditions: OVCAR-3, 20 hr post-transfection
Description: […] Flow cytometry can be used to analyze […] cells using the PE-A channel (excitation at 561 nm with emission at 585/15). Loss in TMRE intensity represents mitochondrial depolarization, which correlates to mitochondrial outer membrane permeabilization (MOMP). […] Bad alone constructs may have some activity, but may be weaker or slower acting than p53-Bad constructs. This underscores the importance of using apoptotic, cell death, proliferation, and oncogenic assays to paint a complete picture of construct potency/efficacy.
(§2) […] Cells were incubated for 30 minutes at 37° C. then analyzed using flow cytometry (FACS-Canto-II with FACS Diva software, core facility, University of Utah) as described before. EGFP was excited at 488 nm with emission filter 530/35, and TMRE was excited at 561 nm with emission filter 585/15. The loss in TMRE intensity indicates mitochondrial depolarization, which correlates with an increase in the permeabilization of the mitochondrial outer membrane (MOMP). Each construct was transfected independently and tested in triplicates (n=3). The lowest MOMP value was set as 0%, and the highest MOMP value as 100% as before.

SKOV-3 cells [6] = experiment: 7-AAD late apoptosis/cell death assay; assay type: cell-based, human; conditions: SKOV-3, 24 hr post-transfection
Description: as §1
(§3) 7-AAD assay was performed as before (14, 15). Briefly, the cells were collected 24 hr post-transfection. The cell pellets were resuspended in 300 μL of 1.25 μg/mL 7-AAD in PBS. The cells were incubated on ice for 20 minutes, and analyzed using FACS-Canto-II similar to the TMRE assay. The cells were gated for EGFP positive (excitation at 480 nm and emission at 535 nm) and 7-AAD positive (excitation at 496 nm and emission at 785 nm). The constructs were assayed in triplicates. The lowest and highest values were set at 0% and 100%, respectively (relative 7-AAD) as before (14).

ID8 cells = experiment: 7-AAD late apoptosis/cell death assay; assay type: cell-based, mouse; conditions: ID8, 24 hr post-transfection
Description: as §1, §3

[7] = system: SKOV-3, OVCAR-3, ID8 and Kuramochi cells; experiment: TMRE mitochondrial depolarization (MOMP) assay, statements for the four ovarian cancer cell lines; assay type: cell-based, human, mouse; conditions: four cell lines of FIG. 17, 20 hr post-transfection
Description: as §2

Kuramochi cells [8] = experiment: 7-AAD assay of constructs combined with paclitaxel; assay type: cell-based, human; conditions: paclitaxel 100 nM or 200 nM added 4 hr after transfection, 48 hr
Description: The IC50 of paclitaxel was determined using a cell viability MTT assay. Kuramochi cells were incubated with different paclitaxel concentrations ranging from 0 nM to 1000 nM for 48 hr. […] A control group without paclitaxel (0 nM) was also included. The cells were incubated for 48 hr before the 7-AAD assay.

[9] = system: SKOV-3, OVCAR-3, ID8 and Kuramochi cells; experiment: 7-AAD late apoptosis/cell death assay, statements for all four ovarian cancer cell lines; assay type: cell-based, human, mouse; conditions: 24 hr post-transfection
Description: as §3

Molecule | subcellular localization of EGFP-tagged construct (SKOV-3 cells [4]) | nuclear transcriptional activity (firefly luciferase) (p53-Luc Cis-Reporter) | mitochondrial depolarization / % MOMP induction (TMRE) (OVCAR-3 cells [5]) | apoptosis / cell death (7-AAD) (SKOV-3 cells [6]) | apoptosis / cell death (7-AAD) (ID8 cells) | mitochondrial depolarization / % MOMP induction (TMRE) [7] | apoptosis / cell death (7-AAD) [9] | further results
CN(C)CC[C@H](CSc1ccccc1)Nc1ccc(S(=O)(=O)NC(=O)c2ccc(N3CCN(Cc4ccccc4-c4ccc(Cl)cc4)CC3)cc2)cc1[N+](=O)[O-] [ABT-737] | – | – | – | – | – | – | – | IC50 (OVCAR-3 cells [1]): 10 ± 4 µM
CC(=O)O[C@H]1C(=O)[C@@]2(C)[C@H]([C@H](OC(=O)c3ccccc3)[C@]3(O)C[C@H](OC(=O)[C@H](O)[C@@H](NC(=O)c4ccccc4)c4ccccc4)C(C)=C1C3(C)C)[C@]1(OC(C)=O)CO[C@@H]1C[C@@H]2O [paclitaxel] | – | – | – | – | – | – | – | IC50 (Kuramochi cells [2]): ~100 nM
poly (cystaminebisacryl-amide-diaminohexane)-polyethylene glycol linked to RGD (Arg-Gly-Asp) [polymer alone] | – | – | – | – | – | – | – | immunogenicity at injection site [3]: no swelling, inflammation, or redness at injection site
Bad/112,136: Bad with S112A and S136A mutations (SEQ ID NO:2), no p53, negative control (protein, mutated BAD peptide) MFQIPEFEPSEQEDSSSAERGLGPSPAGDGPSGSGKHHRQAPGLLWDASHQQEQPTSSSHHGGAGAVEIRSRHSAYPAGTEDDEGMGEEPSPFRGRSRAAPPNLWAAQRYGRELRRMSDEFVDSFKKGLPRPKSAGTATQMRQSSSWTRVFQSWWDRNLGRGSSAPSQ | mitochondrial localization; also recorded: effectively localize to the mitochondria | do not activate firefly luciferase | some activity | inactive | inactive | significant level of % MOMP | comparable to EGFP (negative control) except in OVCAR-3 cells; also recorded: apoptotic activity diminishes | effect of deleting the BH3 domain of Bad on activity (TMRE) (OVCAR-3 cells [5]; FIG. 20): significantly reduces the activity; effect of added paclitaxel on the activity of the construct (7-AAD) (Kuramochi cells [8]): does not seem to increase
Bad: EGFP-tagged human Bad without p53 (SEQ ID NO:1), negative control (protein, UniProt Q92934 1-168, looked up, EGFP tag) Bcl2-associated agonist of …: MFQIPEFEPSEQEDSSSAERGLGPSPAGDGPSGSGKHHRQAPGLLWDASHQQEQPTSSSHHGGAGAVEIRSRHSSYPAGTEDDEGMGEEPSPFRGRSRSAPPNLWAAQRYGRELRRMSDEFVDSFKKGLPRPKSAGTATQMRQSSSWTRVFQSWWDRNLGRGSSAPSQ | found in the cytoplasm | do not activate firefly luciferase | some activity | inactive | inactive | significant level of % MOMP | comparable to EGFP (negative control) except in OVCAR-3 cells; also recorded: apoptotic activity diminishes | –

Reference: patent publication US11299526B2, “p53-BAD fusion proteins” (University of Utah Research Foundation, priority 2018, dated 2022)
